PMC8717551 (The Journal of Biological Chemistry, 2021)

B1: Sa2YefM antitoxin (natural protein)
chain: MIITSPTEARKDFYQLLKNVNNNHEPIYISGNNAENNAVIIGLEDWKSIQETIYLESTGTMDKVREREKDNSGTTNIDDIDWDNL
B2: promoter mutant2 (flanking mutated) (dsDNA)
DNA 1: TTGTTGTACAAAAGTTTGTACAATAT
DNA 2: ATATTGTACAAACTTTTGTACAACAA
B3: promoter mutant1 (core GTAC mutated) (dsDNA)
DNA 1: TTGACTGCATCAAGTGCTGCAGCTAT
DNA 2: ATAGCTGCAGCACTTGATGCAGTCAA

Legend:
[1] = target: the molecule itself; assay: crystal structure
[2] = target: T1, Sa2YefM in heterohexamer;Sa2YoeB in heterohexamer (Staphylococcus aureus …, UniProt Q2FVF7;Q2FVF8 1-85;1-88, |); assay: ITC
T1 sequence 1: B1 chain
T1 sequence 2: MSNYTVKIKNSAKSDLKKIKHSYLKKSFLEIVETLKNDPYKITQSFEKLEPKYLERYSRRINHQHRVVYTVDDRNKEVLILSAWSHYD

Row | Binder | stoichiometry N [1] | binding result [2]
1 | B1 | 2 | –
2 | B2 | – | no binding
3 | B3 | – | no binding
